{"source": "patent US20210032299A1", "binders": {"B1": {"name": "Example 104 (peptide)", "peptide": "Y[Aib]EGTFISDYSI[αMeL]LD[Orn]IHQ[Aib]EFVEYK([AEEA-AEEA-γGlu-C20 diacid])LEAGPSSGAPPPS-NH2", "modifications": "N-terminus assumed", "SMILES": "CC[C@H](C)[C@H](NC(=O)[C@H](CCCN)NC(=O)[C@H](CC(=O)O)NC(=O)[C@H](CC(C)C)NC(=O)[C@](C)(CC(C)C)NC(=O)[C@@H](NC(=O)[C@H](CO)NC(=O)[C@H](Cc1ccc(O)cc1)NC(=O)[C@H](CC(=O)O)NC(=O)[C@H](CO)NC(=O)[C@@H](NC(=O)[C@H](Cc1ccccc1)NC(=O)[C@@H](NC(=O)CNC(=O)[C@H](CCC(=O)O)NC(=O)C(C)(C)NC(=O)[C@@H](N)Cc1ccc(O)cc1)[C@@H](C)O)[C@@H](C)CC)[C@@H](C)CC)C(=O)N[C@@H](Cc1c[nH]cn1)C(=O)N[C@@H](CCC(N)=O)C(=O)NC(C)(C)C(=O)N[C@@H](CCC(=O)O)C(=O)N[C@@H](Cc1ccccc1)C(=O)N[C@H](C(=O)N[C@@H](CCC(=O)O)C(=O)N[C@@H](Cc1ccc(O)cc1)C(=O)N[C@@H](CCCCNC(=O)COCCOCCNC(=O)COCCOCCNC(=O)CC[C@H](NC(=O)CCCCCCCCCCCCCCCCCCC(=O)O)C(=O)O)C(=O)N[C@@H](CC(C)C)C(=O)N[C@@H](CCC(=O)O)C(=O)N[C@@H](C)C(=O)NCC(=O)N1CCC[C@H]1C(=O)N[C@@H](CO)C(=O)N[C@@H](CO)C(=O)NCC(=O)N[C@@H](C)C(=O)N1CCC[C@H]1C(=O)N1CCC[C@H]1C(=O)N1CCC[C@H]1C(=O)N[C@@H](CO)C(N)=O)C(C)C"}, "B2": {"name": "Example 96 (peptide)", "peptide": "Y[Aib]EGTFISDYSIALDKIHQ[Aib]EFVNYK([AEEA-AEEA-γGlu-C20 diacid])LAGGPSSGAPPPS-NH2", "modifications": "N-terminus assumed", "SMILES": "CC[C@H](C)[C@H](NC(=O)[C@H](CO)NC(=O)[C@H](Cc1ccc(O)cc1)NC(=O)[C@H](CC(=O)O)NC(=O)[C@H](CO)NC(=O)[C@@H](NC(=O)[C@H](Cc1ccccc1)NC(=O)[C@@H](NC(=O)CNC(=O)[C@H](CCC(=O)O)NC(=O)C(C)(C)NC(=O)[C@@H](N)Cc1ccc(O)cc1)[C@@H](C)O)[C@@H](C)CC)C(=O)N[C@@H](C)C(=O)N[C@@H](CC(C)C)C(=O)N[C@@H](CC(=O)O)C(=O)N[C@@H](CCCCN)C(=O)N[C@H](C(=O)N[C@@H](Cc1c[nH]cn1)C(=O)N[C@@H](CCC(N)=O)C(=O)NC(C)(C)C(=O)N[C@@H](CCC(=O)O)C(=O)N[C@@H](Cc1ccccc1)C(=O)N[C@H](C(=O)N[C@@H](CC(N)=O)C(=O)N[C@@H](Cc1ccc(O)cc1)C(=O)N[C@@H](CCCCNC(=O)COCCOCCNC(=O)COCCOCCNC(=O)CC[C@H](NC(=O)CCCCCCCCCCCCCCCCCCC(=O)O)C(=O)O)C(=O)N[C@@H](CC(C)C)C(=O)N[C@@H](C)C(=O)NCC(=O)NCC(=O)N1CCC[C@H]1C(=O)N[C@@H](CO)C(=O)N[C@@H](CO)C(=O)NCC(=O)N[C@@H](C)C(=O)N1CCC[C@H]1C(=O)N1CCC[C@H]1C(=O)N1CCC[C@H]1C(=O)N[C@@H](CO)C(N)=O)C(C)C)[C@@H](C)CC"}, "B3": {"name": "Example 7 (peptide)", "peptide": "Y[Aib]EGTFISDYSI[αMeL]LD[Orn]IHQ[Aib]EFV[dE]YK([AEEA-AEEA-γGlu-C18 diacid])LEGGPSSGAPPPS-NH2", "modifications": "N-terminus assumed", "SMILES": "CC[C@H](C)[C@H](NC(=O)[C@H](CCCN)NC(=O)[C@H](CC(=O)O)NC(=O)[C@H](CC(C)C)NC(=O)[C@](C)(CC(C)C)NC(=O)[C@@H](NC(=O)[C@H](CO)NC(=O)[C@H](Cc1ccc(O)cc1)NC(=O)[C@H](CC(=O)O)NC(=O)[C@H](CO)NC(=O)[C@@H](NC(=O)[C@H](Cc1ccccc1)NC(=O)[C@@H](NC(=O)CNC(=O)[C@H](CCC(=O)O)NC(=O)C(C)(C)NC(=O)[C@@H](N)Cc1ccc(O)cc1)[C@@H](C)O)[C@@H](C)CC)[C@@H](C)CC)C(=O)N[C@@H](Cc1c[nH]cn1)C(=O)N[C@@H](CCC(N)=O)C(=O)NC(C)(C)C(=O)N[C@@H](CCC(=O)O)C(=O)N[C@@H](Cc1ccccc1)C(=O)N[C@H](C(=O)N[C@H](CCC(=O)O)C(=O)N[C@@H](Cc1ccc(O)cc1)C(=O)N[C@@H](CCCCNC(=O)COCCOCCNC(=O)COCCOCCNC(=O)CC[C@H](NC(=O)CCCCCCCCCCCCCCCCC(=O)O)C(=O)O)C(=O)N[C@@H](CC(C)C)C(=O)N[C@@H](CCC(=O)O)C(=O)NCC(=O)NCC(=O)N1CCC[C@H]1C(=O)N[C@@H](CO)C(=O)N[C@@H](CO)C(=O)NCC(=O)N[C@@H](C)C(=O)N1CCC[C@H]1C(=O)N1CCC[C@H]1C(=O)N1CCC[C@H]1C(=O)N[C@@H](CO)C(N)=O)C(C)C"}, "B4": {"name": "Example 103 (peptide)", "peptide": "Y[Aib]EGTFISDYSI[αMeL]LD[Orn]IHQ[Aib]DFVEYK([AEEA-AEEA-γGlu-C18 diacid])LEGGPSSGAPPPS-NH2", "modifications": "N-terminus assumed", "SMILES": "CC[C@H](C)[C@H](NC(=O)[C@H](CCCN)NC(=O)[C@H](CC(=O)O)NC(=O)[C@H](CC(C)C)NC(=O)[C@](C)(CC(C)C)NC(=O)[C@@H](NC(=O)[C@H](CO)NC(=O)[C@H](Cc1ccc(O)cc1)NC(=O)[C@H](CC(=O)O)NC(=O)[C@H](CO)NC(=O)[C@@H](NC(=O)[C@H](Cc1ccccc1)NC(=O)[C@@H](NC(=O)CNC(=O)[C@H](CCC(=O)O)NC(=O)C(C)(C)NC(=O)[C@@H](N)Cc1ccc(O)cc1)[C@@H](C)O)[C@@H](C)CC)[C@@H](C)CC)C(=O)N[C@@H](Cc1c[nH]cn1)C(=O)N[C@@H](CCC(N)=O)C(=O)NC(C)(C)C(=O)N[C@@H](CC(=O)O)C(=O)N[C@@H](Cc1ccccc1)C(=O)N[C@H](C(=O)N[C@@H](CCC(=O)O)C(=O)N[C@@H](Cc1ccc(O)cc1)C(=O)N[C@@H](CCCCNC(=O)COCCOCCNC(=O)COCCOCCNC(=O)CC[C@H](NC(=O)CCCCCCCCCCCCCCCCC(=O)O)C(=O)O)C(=O)N[C@@H](CC(C)C)C(=O)N[C@@H](CCC(=O)O)C(=O)NCC(=O)NCC(=O)N1CCC[C@H]1C(=O)N[C@@H](CO)C(=O)N[C@@H](CO)C(=O)NCC(=O)N[C@@H](C)C(=O)N1CCC[C@H]1C(=O)N1CCC[C@H]1C(=O)N1CCC[C@H]1C(=O)N[C@@H](CO)C(N)=O)C(C)C"}, "B5": {"name": "Example 102 (peptide)", "peptide": "Y[Aib]EGTFISDYSI[αMeL]LD[Orn]IHQ[Aib]EFV[dE]YK([AEEA-AEEA-γGlu-C20 diacid])LEGGPSSGAPPPS-NH2", "modifications": "N-terminus assumed", "SMILES": "CC[C@H](C)[C@H](NC(=O)[C@H](CCCN)NC(=O)[C@H](CC(=O)O)NC(=O)[C@H](CC(C)C)NC(=O)[C@](C)(CC(C)C)NC(=O)[C@@H](NC(=O)[C@H](CO)NC(=O)[C@H](Cc1ccc(O)cc1)NC(=O)[C@H](CC(=O)O)NC(=O)[C@H](CO)NC(=O)[C@@H](NC(=O)[C@H](Cc1ccccc1)NC(=O)[C@@H](NC(=O)CNC(=O)[C@H](CCC(=O)O)NC(=O)C(C)(C)NC(=O)[C@@H](N)Cc1ccc(O)cc1)[C@@H](C)O)[C@@H](C)CC)[C@@H](C)CC)C(=O)N[C@@H](Cc1c[nH]cn1)C(=O)N[C@@H](CCC(N)=O)C(=O)NC(C)(C)C(=O)N[C@@H](CCC(=O)O)C(=O)N[C@@H](Cc1ccccc1)C(=O)N[C@H](C(=O)N[C@H](CCC(=O)O)C(=O)N[C@@H](Cc1ccc(O)cc1)C(=O)N[C@@H](CCCCNC(=O)COCCOCCNC(=O)COCCOCCNC(=O)CC[C@H](NC(=O)CCCCCCCCCCCCCCCCCCC(=O)O)C(=O)O)C(=O)N[C@@H](CC(C)C)C(=O)N[C@@H](CCC(=O)O)C(=O)NCC(=O)NCC(=O)N1CCC[C@H]1C(=O)N[C@@H](CO)C(=O)N[C@@H](CO)C(=O)NCC(=O)N[C@@H](C)C(=O)N1CCC[C@H]1C(=O)N1CCC[C@H]1C(=O)N1CCC[C@H]1C(=O)N[C@@H](CO)C(N)=O)C(C)C"}, "B6": {"name": "Example 105 (peptide)", "peptide": "Y[Aib]EGTFISDYSI[αMeL]LD[Orn]IHQ[Aib]EFVEYK([AEEA-AEEA-γGlu-C20 diacid])LETGPSSGAPPPS-NH2", "modifications": "N-terminus assumed", "SMILES": "CC[C@H](C)[C@H](NC(=O)[C@H](CCCN)NC(=O)[C@H](CC(=O)O)NC(=O)[C@H](CC(C)C)NC(=O)[C@](C)(CC(C)C)NC(=O)[C@@H](NC(=O)[C@H](CO)NC(=O)[C@H](Cc1ccc(O)cc1)NC(=O)[C@H](CC(=O)O)NC(=O)[C@H](CO)NC(=O)[C@@H](NC(=O)[C@H](Cc1ccccc1)NC(=O)[C@@H](NC(=O)CNC(=O)[C@H](CCC(=O)O)NC(=O)C(C)(C)NC(=O)[C@@H](N)Cc1ccc(O)cc1)[C@@H](C)O)[C@@H](C)CC)[C@@H](C)CC)C(=O)N[C@@H](Cc1c[nH]cn1)C(=O)N[C@@H](CCC(N)=O)C(=O)NC(C)(C)C(=O)N[C@@H](CCC(=O)O)C(=O)N[C@@H](Cc1ccccc1)C(=O)N[C@H](C(=O)N[C@@H](CCC(=O)O)C(=O)N[C@@H](Cc1ccc(O)cc1)C(=O)N[C@@H](CCCCNC(=O)COCCOCCNC(=O)COCCOCCNC(=O)CC[C@H](NC(=O)CCCCCCCCCCCCCCCCCCC(=O)O)C(=O)O)C(=O)N[C@@H](CC(C)C)C(=O)N[C@@H](CCC(=O)O)C(=O)N[C@H](C(=O)NCC(=O)N1CCC[C@H]1C(=O)N[C@@H](CO)C(=O)N[C@@H](CO)C(=O)NCC(=O)N[C@@H](C)C(=O)N1CCC[C@H]1C(=O)N1CCC[C@H]1C(=O)N1CCC[C@H]1C(=O)N[C@@H](CO)C(N)=O)[C@@H](C)O)C(C)C"}}, "molecular_target": "T1, human glucose-dependent insulinotropic polypeptide (GIP) receptor (human), P48546", "T1 chain": "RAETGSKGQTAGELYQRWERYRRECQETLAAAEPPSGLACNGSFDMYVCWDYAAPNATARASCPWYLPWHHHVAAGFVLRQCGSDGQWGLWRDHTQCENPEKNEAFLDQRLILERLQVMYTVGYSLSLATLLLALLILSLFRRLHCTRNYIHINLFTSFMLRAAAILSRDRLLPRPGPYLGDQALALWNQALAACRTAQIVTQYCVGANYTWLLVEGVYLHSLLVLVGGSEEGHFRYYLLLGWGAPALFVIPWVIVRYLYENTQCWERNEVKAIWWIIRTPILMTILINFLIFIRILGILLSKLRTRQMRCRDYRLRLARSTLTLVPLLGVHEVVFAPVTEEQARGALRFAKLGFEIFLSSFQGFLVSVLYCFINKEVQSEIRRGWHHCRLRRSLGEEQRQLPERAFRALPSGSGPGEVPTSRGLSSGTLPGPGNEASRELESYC", "assay": "SPA, displacement of [125I]-GIP from hGIPR membranes, 0.1% bacitracin", "note": "Starred links: 1 amine or outer side, 2 acyl side, 3 side chain; linkers in the order of their positions; H or OH if unused. Non-standard residues stand in square brackets, D forms with d. Groups on a side chain read outwards from the residue. No end group written: not given here. *: point of attachment. C20 diacid = O=C(O)CCCCCCCCCCCCCCCCCCC(=O)*; C18 diacid = O=C(O)CCCCCCCCCCCCCCCCC(=O)*; γGlu = O=C(O)[C@H](CCC(=O)[*:2])N[*:1]; αMeL = CC(C)C[C@](C)(N)C(=O)O; Orn = NCCC[C@H](N)C(=O)O; AEEA = NCCOCCOCC(=O)O; Aib = CC(C)(N)C(=O)O", "data": [{"binder": "B1", "values": [{"measurement": "Ki", "value": 0.134, "unit": "nM"}]}, {"binder": "B2", "values": [{"measurement": "Ki", "value": 0.232, "unit": "nM"}]}, {"binder": "B3", "values": [{"measurement": "Ki", "value": 0.193, "unit": "nM"}]}, {"binder": "B4", "values": [{"measurement": "Ki", "value": 0.0405, "unit": "nM"}]}, {"binder": "B5", "values": [{"measurement": "Ki", "value": 0.164, "unit": "nM"}]}, {"binder": "B6", "values": [{"measurement": "Ki", "value": 0.174, "unit": "nM"}]}, {"binder": "Y[Aib]EGTFISDYSI[αMeL]LD[Orn]IHQ[Aib]DFV[dE]YK([AEEA-AEEA-γGlu-C20 diacid])LEGGPSSGAPPPS-NH2", "note": "[Example 101]", "values": [{"measurement": "Ki", "value": 0.139, "unit": "nM"}]}]}
